Reference: patent US20240287172A1 (SCIRHOM, published 2024)
Changes are numbered by the printed parent chain.

Columns and labels:
[1] = target: T1, hiR1-FL-WT-T7 (human, UniProt Q96CC6 1-855); experiment: FACS on MEF-DKO cells
T1 construct: on MEF-DKO cells
T1 sequence: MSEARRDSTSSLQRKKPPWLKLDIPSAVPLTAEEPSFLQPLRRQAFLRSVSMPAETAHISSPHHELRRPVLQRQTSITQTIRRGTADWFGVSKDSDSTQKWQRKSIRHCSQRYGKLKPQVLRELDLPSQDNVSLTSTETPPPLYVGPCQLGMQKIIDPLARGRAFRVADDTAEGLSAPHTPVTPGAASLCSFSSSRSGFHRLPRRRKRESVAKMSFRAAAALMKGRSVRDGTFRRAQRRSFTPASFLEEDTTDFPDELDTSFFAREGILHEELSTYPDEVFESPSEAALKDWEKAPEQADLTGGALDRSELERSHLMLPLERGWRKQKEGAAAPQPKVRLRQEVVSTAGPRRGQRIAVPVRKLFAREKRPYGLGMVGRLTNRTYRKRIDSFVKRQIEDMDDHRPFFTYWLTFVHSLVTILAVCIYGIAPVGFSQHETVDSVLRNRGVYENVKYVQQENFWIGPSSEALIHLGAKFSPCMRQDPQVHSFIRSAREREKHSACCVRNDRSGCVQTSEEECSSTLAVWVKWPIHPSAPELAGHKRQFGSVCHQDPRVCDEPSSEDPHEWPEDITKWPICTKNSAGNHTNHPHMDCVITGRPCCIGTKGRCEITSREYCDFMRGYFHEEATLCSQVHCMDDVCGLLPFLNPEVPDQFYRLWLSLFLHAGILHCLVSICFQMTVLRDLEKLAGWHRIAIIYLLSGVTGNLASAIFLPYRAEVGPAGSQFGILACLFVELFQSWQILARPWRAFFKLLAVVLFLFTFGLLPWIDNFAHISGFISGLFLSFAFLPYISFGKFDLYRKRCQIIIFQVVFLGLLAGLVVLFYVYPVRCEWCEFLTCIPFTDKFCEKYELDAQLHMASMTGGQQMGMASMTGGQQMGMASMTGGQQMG

[2] = target: T2, hiR2-FL-T530P-T7 (human, UniProt Q6PJF5 1-856); experiment: FACS, MEF-DKO cells, 3 µg/ml
T2 sequence: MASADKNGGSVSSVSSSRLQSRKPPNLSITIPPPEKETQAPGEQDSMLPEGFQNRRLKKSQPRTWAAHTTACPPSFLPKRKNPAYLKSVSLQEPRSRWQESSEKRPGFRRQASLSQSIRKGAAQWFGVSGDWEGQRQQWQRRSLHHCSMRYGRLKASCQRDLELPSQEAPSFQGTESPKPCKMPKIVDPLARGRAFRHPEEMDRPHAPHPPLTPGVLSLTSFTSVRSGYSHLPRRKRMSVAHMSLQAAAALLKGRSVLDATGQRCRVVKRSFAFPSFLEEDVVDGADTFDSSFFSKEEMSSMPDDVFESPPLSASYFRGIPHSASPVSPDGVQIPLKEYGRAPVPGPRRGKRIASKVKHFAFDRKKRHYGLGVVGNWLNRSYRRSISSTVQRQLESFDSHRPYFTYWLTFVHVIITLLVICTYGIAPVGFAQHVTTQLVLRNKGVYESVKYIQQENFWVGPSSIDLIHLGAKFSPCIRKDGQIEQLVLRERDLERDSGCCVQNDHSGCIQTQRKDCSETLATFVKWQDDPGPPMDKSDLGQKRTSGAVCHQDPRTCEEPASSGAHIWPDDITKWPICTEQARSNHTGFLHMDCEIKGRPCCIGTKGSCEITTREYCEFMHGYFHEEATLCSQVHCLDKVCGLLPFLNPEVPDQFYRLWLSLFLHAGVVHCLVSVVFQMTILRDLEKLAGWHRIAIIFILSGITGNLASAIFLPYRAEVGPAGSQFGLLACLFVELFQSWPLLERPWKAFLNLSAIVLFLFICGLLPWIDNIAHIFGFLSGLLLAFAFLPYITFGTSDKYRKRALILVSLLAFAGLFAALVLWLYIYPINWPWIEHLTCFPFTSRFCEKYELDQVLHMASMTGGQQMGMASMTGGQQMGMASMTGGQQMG

[3] = target: T3, hiR2-FL-A560S-T7 (human, UniProt Q6PJF5 1-856); experiment: FACS, MEF-DKO cells, 3 µg/ml
T3 sequence: T2 sequence with P530T, A560S

B1: antibody 16 (antibody, V domains shown)
VH: QVTLKESGPGILQPSQTLSLTCSFSGFSLSTFALGVGWIRQPSGRGLEWLAHIWWDDDKYYNPALKSRLTISKDTSKNHVFLKIANVDTADTATYYCARITTYYYGMDYWGQGTSVTVSS
VL: DIVLSQSPATLSVTPGDSVSLFCRASQSIGNHLHWYQQESHASPRLLIKYASQSISGIPSRFSGSGSGTDFTLSINSVETEDFGMYFCQQSYNWPLTFGAGTKLELK
notes: mouse IgG, kappa light chain; also called clone #16; purified antibody 16
binding result [1]: no binding (tested: 3 µg/ml)

B2: antibody 5 (antibody, V domains shown)
VH: QVTLKESGPGILQPSQTLSLTCSFSGFSLSTFGMGVGWIRQPSGKGLEWLAHIWWDDEKYYNSALKSRLTISKATSKNQAFLKIANVDTADTATYYCARISNYGSNYWYFNVWGTGTTVTVSS
VL: QVVLTQSPALMSASPGEKVTMTCSAGSSVSCMYWYQQKPGSSPRVLIYDTSNLASGVPARFTGSGSGTSYSLTISRMEAEDAASYYCQQWNSYPLTFGAGTKLELK
notes: mouse IgG, kappa light chain; also called clone #5; purified antibody 5
binding result [1]: no binding (tested: 3 µg/ml)

B3: antibody 22 (antibody, V domains shown)
VH: B2 VH with A80V
VL: B2 VL with C31Y, S84T
notes: mouse IgG, kappa light chain; also called clone #22; purified antibody 22
binding result [1]: no binding (tested: 3 µg/ml)

B4: antibody 42 (antibody, V domains shown)
VH: B2 VH with F24L, M34R, S63P, A74D, A80V, K83R, S101Q, N111D
VL: LIVLTQSPAIMSASPGEKVTMTCGATSRISYMFWYQQKPGSSPRVLIYDTSNLASGVPVRFSGSGSGTSYSLTISRVEAEDVATYYCQQWNSYPLTFGAGTKLELK
notes: mouse IgG, kappa light chain; also called clone #42; purified antibody 42
loss of binding vs wild type [2]: ≥ 30%
loss of binding vs wild type [3]: ≥ 30%

B5: antibody 48 (antibody, V domains shown)
VH: QVQLQQSGTELVRPGTSVKVSCKASGYAFTNYLIEWVKQRPGQGLEWIGVINPGSGFTKYNEKFKGKATLTADKSSSTVYMHLSSLTSEDSAVYFCARGLYRAMDYWGQGTSVTVSS
VL: DIQMTQSPASQSASLGESVTITCLASQTIATWLAWYQQKPGKSPQLLIYGATTLADGVPSRFSGGGSGTKFSFKISSLQAEDFVSYYCQQLYSTPYTFGGGTKLEIK
notes: mouse IgG, kappa light chain; also called clone #48; purified antibody 48
loss of binding vs wild type [2]: ≥ 30%
loss of binding vs wild type [3]: ≥ 30%

B6: antibody 50 (antibody, V domains shown)
VH: B5 VH with T9A, T16A, T30S, V79A, H82Q
VL: B5 VL with A30G, G50A, T52A, T53S, S85N, L91I
notes: mouse IgG, kappa light chain; also called clone #50; purified antibody 50
loss of binding vs wild type [2]: ≥ 30%
loss of binding vs wild type [3]: ≥ 30%
